Laboratory results taken from paper doi:10.1101/2025.03.05.641625.

Key:
[1] = target: SARS-CoV-2 core RTC with nsp13.1 bound (RTC-nsp13.1) (SARS-CoV-2) (UniProt P0DTD1); assay: magnetic tweezers
[2] = target: SARS-CoV-2 core replication-transcription complex (nsp12-polymerase, nsp7, nsp8) (SARS-CoV-2) (UniProt P0DTD1); assay: magnetic tweezers

In the case of “SARS-CoV-2 nsp13-helicase (wild type) (from UniProt P0DTD1 5325-5925) (enzyme)”, the Ka [1] is reported as 4.6e+08 M⁻¹ and the Ka [2] is reported as 2.3e+08 M⁻¹.
